Experimental data taken from patent US20200360486A1.

Key:
[1] = molecular target: Cy3-conjugated K9-C-peptide (C-peptide bound to the elastin-like polypeptide composed of 9 [(VPGVG)11(VPGKG)1(VPGVG)1] repeating units), as hydrogel on an amine array; assay: cell-based or functional assay
[2] = test system: Cy3-conjugated K9-C-peptide (C-peptide bound to the elastin-like polypeptide composed of 9 [(VPGVG)11(VPGKG)1(VPGVG)1] repeating units), as hydrogel on an amine array

Sequence of Cy3-conjugated K9-C-peptide (C-peptide bound to the elastin-like polypeptide composed of 9 [(VPGVG)11(VPGKG)1(VPGVG)1] repeating units), as hydrogel on an amine array (chain, as listed by the source): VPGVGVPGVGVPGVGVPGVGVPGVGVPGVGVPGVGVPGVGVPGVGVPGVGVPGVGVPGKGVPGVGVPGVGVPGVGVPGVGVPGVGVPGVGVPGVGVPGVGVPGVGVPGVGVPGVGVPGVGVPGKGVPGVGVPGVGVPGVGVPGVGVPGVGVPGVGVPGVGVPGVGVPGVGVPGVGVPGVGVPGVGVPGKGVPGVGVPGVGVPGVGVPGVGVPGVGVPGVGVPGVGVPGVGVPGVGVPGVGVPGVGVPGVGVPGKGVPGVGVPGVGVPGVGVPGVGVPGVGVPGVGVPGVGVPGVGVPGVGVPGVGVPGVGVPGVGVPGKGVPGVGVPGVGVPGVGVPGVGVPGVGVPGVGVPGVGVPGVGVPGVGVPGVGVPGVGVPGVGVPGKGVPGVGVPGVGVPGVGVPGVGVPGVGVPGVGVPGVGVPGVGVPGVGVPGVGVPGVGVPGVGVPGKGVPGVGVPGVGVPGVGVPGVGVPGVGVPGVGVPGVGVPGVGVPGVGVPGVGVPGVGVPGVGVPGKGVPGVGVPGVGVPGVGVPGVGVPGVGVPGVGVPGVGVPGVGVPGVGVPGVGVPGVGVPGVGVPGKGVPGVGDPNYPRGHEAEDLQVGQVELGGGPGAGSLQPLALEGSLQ

Substance	EC50 of on-chip degradation of Cy3-conjugated K9-C-peptide hydrogel versus protease concentration [1]	highest degradation rate of the hydrogel, at 120 min (time course) [2]	hydrogel degraded after the first elastase-2 treatment (repeated every 30 min) [2]	maximum degradation rate, after the fifth elastase-2 treatment [2]
collagenase-2 (enzyme)	0.17 U/ml			
pepsin (enzyme)	510 U/ml			
elastase-2		72.3% at 120 min	48.6+/-0.8%	89.7+/-0.2%
elastase-2 (enzyme)	0.23 U/ml			
trypsin (enzyme)	125 U/ml			
